Experimental findings from article PMC3125217 are described below.

Assay in all cases: inhibition of PE/PC monolayer binding (surface pressure, Wilhelmy technique); spectrin polypeptides preincubated 30 min at room temperature with ankSBD, then injected under a PE/PC 3:2 monolayer; 5 mM Tris/HCl pH 7.5, 0.5 mM EDTA, 150 mM NaCl, 0.5 mM dithiothreitol, 1 mM NaN3; 21°C
Experiment [1] deals with recombinant ankyrin-binding domain of erythroid β-spectrin (ankBDn), wild type (UniProt P11277).
For experiment [2], the target named is ankBDn triple mutant CLSC (W1771C, M1778S, W1779C) (UniProt P11277).
Experiment [3] concerns the target ankBDn triple mutant SSSW (W1771S, L1775S, M1778S) (UniProt P11277).

One may read the Ki as the equilibrium dissociation constant of an inhibitor or competing ligand from its target. Regarding “recombinant spectrin-binding domain of erythrocyte ankyrin (ankSBD) (from UniProt P16157 1-1881) (domain or fragment)”, the Ki in experiment [1] amounted to 0.15 nM; in experiment [2] it was 0.17 nM; in experiment [3] it was 0.2 nM.
